Tests used:
[1] = molecular target: T1, RBD-Fc (RBD与Fc的融合蛋白), 野生型RBD (SARS-CoV-2, UniProt P0DTC2 319-541); assay: competitive ELISA, nanobody titrated against RBD binding to coated ACE2
[2] = molecular target: T1, RBD-Fc (RBD与Fc的融合蛋白), 野生型RBD; assay: BLI (Octet RED96), His-tagged nanobody on Ni-NTA sensor, RBD-Fc as analyte
[3] = molecular target: T1, RBD-Fc (RBD与Fc的融合蛋白), 野生型RBD; assay: BLI, compared with C5

Row | Binder | IC50 [1] | Kd [2] | fold increase in affinity over C5 [3]
1 | 纳米抗体C5D2 (VHH) VHH: DVQLVESGGGSVQAGGSLRLSCAASGEYSQLRFLGWFRQAPGKEREGVAAGLGANEDGYYADSVKGRFTVSLDNAENTVYLQMNSLKPEDTALYYCAALVIFSHDGPEFLAQNYWGQGTQVTVSS | 28 nM | < 0.001 nM | –
2 | 纳米抗体C5G2 (VHH) VHH: DVQLVESGGGSVQAGGSLRLSCAASGKFSHLVFLGWFRQAPGKEREGVAAGLGAYESGYYADSVKGRFTVSLDNAENTVYLQMNSLKPEDTALYYCAALVVLSRDNTEFIAHNYWGQGTQVTVSS | 88 nM | 1.62 nM | 11 fold

Source: CN114349851A (SHANGHAI NAI BIOTECHNOLOGY CO LTD, dated 2022)
